Data as given in IntAct's records for PubMed 31515488.

B1: Vesicle transport through interaction with t-SNAREs homolog 1B (Homo sapiens), Q9UEU0 (parent)
chain: MASSAASSEHFEKLHEIFRGLHEDLQGVPERLLGTAGTEEKKKLIRDFDEKQQEANETLAEMEEELRYAPLSFRNPMMSKLRNYRKDLAKLHREVRSTPLTATPGGRGDMKYGIYAVENEHMNRLQSQRAMLLQGTESLNRATQSIERSHRIATETDQIGSEIIEELGEQRDQLERTKSRLVNTSENLSKSRKILRSMSRKVTTNKLLLSIIILLELAILGGLVYYKFFRSH
partner: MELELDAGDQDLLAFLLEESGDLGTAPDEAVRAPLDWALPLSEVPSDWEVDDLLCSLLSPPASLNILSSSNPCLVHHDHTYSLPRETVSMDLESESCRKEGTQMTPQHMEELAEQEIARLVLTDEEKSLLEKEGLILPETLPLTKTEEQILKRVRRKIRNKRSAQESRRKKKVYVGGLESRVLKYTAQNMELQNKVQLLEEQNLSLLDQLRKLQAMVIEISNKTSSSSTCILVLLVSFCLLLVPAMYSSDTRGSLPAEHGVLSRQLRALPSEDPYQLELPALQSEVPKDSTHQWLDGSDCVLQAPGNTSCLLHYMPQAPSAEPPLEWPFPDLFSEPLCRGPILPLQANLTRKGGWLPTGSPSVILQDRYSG
B2: Methanethiol oxidase (Homo sapiens), Q13228 (parent)
chain: MATKCGNCGPGYSTPLEAMKGPREEIVYLPCIYRNTGTEAPDYLATVDVDPKSPQYCQVIHRLPMPNLKDELHHSGWNTCSSCFGDSTKSRTKLVLPSLISSRIYVVDVGSEPRAPKLHKVIEPKDIHAKCELAFLHTSHCLASGEVMISSLGDVKGNGKGGFVLLDGETFEVKGTWERPGGAAPLGYDFWYQPRHNVMISTEWAAPNVLRDGFNPADVEAGLYGSHLYVWDWQRHEIVQTLSLKDGLIPLEIRFLHNPDAAQGFVGCALSSTIQRFYKNEGGTWSVEKVIQVPPKKVKGWLLPEMPGLITDILLSLDDRFLYFSNWLHGDLRQYDISDPQRPRLTGQLFLGGSIVKGGPVQVLEDEELKSQPEPLVVKGKRVAGGPQMIQLSLDGKRLYITTSLYSAWDKQFYPDLIREGSVMLQVDVDTVKGGLKLNPNFLVDFGKEPLGPALAHELRYPGGDCSSDIWI
partner: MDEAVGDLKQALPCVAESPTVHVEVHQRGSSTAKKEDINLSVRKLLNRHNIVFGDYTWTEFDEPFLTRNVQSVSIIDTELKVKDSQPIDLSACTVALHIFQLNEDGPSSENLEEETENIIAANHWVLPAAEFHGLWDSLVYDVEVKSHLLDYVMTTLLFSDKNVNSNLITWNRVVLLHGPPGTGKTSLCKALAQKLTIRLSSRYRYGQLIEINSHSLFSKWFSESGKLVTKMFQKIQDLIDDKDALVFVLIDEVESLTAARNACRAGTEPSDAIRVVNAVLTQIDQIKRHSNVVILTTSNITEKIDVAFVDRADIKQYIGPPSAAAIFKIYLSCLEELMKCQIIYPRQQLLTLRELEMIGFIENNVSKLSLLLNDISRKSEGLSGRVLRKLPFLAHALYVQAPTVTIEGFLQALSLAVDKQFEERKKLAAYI
B3: Protein BANP (Homo sapiens), Q8N9N5-2 (parent)
chain: MMSEHDLADVVQIAVEDLSPDHPVVLENHVVTDEDEPALKRQRLEINCQDPSIKSFLYSINQTICLRLDSIEAKLQALEATCKSLEEKLDLVTNKQHSPIQVPMVAGSPLGATQTCNKVRCAVPGRRQNTIVVKVPGQEDSHHEDGESGSEASDSVSSCGQAGSQSIGSNVTLITLNSEEDYPNGTWLGDENNPEMRVRCAIIPSDMLHISTNCRTAEKMALTLLDYLFHREVQAVSNLSGQGKHGKKQLDPLTIYGIRCHLFYKFGITESDWYRIKQSIDSKCRTAWRRKQRGQSLAVKSFSRRTPNSSSYCPSEPMMSTPPPASELPQPQPQPQALHYALANAQQVQIHQIGEDGQVQVIPQGHLHIAQVPQGEQVQITQDSEGNLQIHHVGQDGQVLQGAQLIAVASSDPAAAGVDGSPLQGSDIQVQYVQLAPVSDHTAGAQTAEALQPTLQPEMQLEHGAIQIQ
partner: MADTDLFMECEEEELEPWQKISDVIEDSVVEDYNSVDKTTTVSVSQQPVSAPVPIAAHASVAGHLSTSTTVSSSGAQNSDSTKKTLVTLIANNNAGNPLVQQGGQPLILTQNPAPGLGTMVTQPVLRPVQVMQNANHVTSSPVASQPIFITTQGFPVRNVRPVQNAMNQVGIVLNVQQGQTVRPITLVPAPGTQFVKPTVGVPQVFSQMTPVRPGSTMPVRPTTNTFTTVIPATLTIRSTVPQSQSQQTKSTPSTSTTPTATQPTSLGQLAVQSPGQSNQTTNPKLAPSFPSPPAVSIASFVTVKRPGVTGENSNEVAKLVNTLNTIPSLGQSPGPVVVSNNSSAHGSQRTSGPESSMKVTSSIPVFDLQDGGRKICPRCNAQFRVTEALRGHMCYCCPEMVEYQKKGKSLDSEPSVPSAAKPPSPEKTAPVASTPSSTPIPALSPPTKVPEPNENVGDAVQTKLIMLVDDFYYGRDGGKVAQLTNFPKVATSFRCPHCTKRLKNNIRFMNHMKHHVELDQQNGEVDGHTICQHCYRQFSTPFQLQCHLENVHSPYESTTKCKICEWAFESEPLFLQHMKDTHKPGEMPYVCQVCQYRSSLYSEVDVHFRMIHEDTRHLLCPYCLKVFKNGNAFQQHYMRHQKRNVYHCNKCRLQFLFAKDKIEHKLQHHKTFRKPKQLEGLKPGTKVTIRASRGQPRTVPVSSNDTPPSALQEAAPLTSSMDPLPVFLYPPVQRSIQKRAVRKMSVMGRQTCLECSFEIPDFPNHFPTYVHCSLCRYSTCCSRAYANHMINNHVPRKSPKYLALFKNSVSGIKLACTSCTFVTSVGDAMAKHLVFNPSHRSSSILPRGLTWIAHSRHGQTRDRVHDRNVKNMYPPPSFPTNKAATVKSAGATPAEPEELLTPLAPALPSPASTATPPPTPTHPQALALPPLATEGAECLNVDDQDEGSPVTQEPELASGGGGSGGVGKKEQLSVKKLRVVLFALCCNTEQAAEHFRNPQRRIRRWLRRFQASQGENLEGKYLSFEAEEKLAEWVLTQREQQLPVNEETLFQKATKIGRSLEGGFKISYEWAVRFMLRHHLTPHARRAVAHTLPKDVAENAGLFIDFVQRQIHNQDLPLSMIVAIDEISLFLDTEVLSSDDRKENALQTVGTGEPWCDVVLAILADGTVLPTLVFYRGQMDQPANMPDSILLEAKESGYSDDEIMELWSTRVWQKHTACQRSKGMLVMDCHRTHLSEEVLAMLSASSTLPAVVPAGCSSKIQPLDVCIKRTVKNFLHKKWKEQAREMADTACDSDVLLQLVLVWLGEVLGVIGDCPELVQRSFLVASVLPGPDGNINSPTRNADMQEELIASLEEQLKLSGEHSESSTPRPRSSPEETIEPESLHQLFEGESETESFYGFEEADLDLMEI
B4: Actin-associated protein FAM107A (Homo sapiens), O95990 (parent)
chain: MYSEIQRERADIGGLMARPEYREWNPELIKPKKLLNPVKASRSHQELHRELLMNHRRGLGVDSKPELQRVLEHRRRNQLIKKKKEELEAKRLQCPFEQELLRRQQRLNQLEKPPEKEEDHAPEFIKVRENLRRIATLTSEEREL
B5: THAP domain-containing protein 7 (Homo sapiens), Q9BT49 (parent)
chain: MPRHCSAAGCCTRDTRETRNRGISFHRLPKKDNPRRGLWLANCQRLDPSGQGLWDPASEYIYFCSKHFEEDCFELVGISGYHRLKEGAVPTIFESFSKLRRTTKTKGHSYPPGPAEVSRLRRCRKRCSEGRGPTTPFSPPPPADVTCFPVEEASAPATLPASPAGRLEPGLSSPFSDLLGPLGAQADEAGCSAQPSPERQPSPLEPRPVSPSAYMLRLPPPAGAYIQNEHSYQVGSALLWKRRAEAALDALDKAQRQLQACKRREQRLRLRLTKLQQERAREKRAQADARQTLKEHVQDFAMQLSSSMA
partner: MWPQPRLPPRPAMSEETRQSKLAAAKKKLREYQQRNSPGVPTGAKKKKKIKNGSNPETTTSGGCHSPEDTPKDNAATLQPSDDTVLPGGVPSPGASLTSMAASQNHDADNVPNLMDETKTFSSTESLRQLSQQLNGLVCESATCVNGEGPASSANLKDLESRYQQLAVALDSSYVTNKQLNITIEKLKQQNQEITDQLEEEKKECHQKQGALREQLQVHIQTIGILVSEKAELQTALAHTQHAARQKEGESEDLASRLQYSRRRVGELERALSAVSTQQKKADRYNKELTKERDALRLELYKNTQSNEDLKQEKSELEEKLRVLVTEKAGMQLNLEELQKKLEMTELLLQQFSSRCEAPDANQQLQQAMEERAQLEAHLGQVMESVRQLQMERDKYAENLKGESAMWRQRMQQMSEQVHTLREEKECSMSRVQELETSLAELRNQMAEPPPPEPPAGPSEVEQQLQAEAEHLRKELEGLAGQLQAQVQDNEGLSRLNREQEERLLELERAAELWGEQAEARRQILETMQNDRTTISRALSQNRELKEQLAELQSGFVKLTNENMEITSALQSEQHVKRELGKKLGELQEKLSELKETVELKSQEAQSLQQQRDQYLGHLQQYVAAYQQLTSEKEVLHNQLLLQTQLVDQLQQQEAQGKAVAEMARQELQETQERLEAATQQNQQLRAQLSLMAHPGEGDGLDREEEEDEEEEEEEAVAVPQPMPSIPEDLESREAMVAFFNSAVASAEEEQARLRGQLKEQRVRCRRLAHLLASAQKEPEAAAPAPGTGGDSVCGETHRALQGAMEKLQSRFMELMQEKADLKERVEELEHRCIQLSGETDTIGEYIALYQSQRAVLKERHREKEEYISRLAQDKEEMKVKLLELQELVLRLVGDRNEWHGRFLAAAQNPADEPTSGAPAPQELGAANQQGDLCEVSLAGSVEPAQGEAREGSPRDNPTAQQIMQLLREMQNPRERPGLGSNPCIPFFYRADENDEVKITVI
B6: Tuftelin-interacting protein 11 (Homo sapiens), Q9UBB9 (parent)
chain: MSLSHLYRDGEGRIDDDDDERENFEITDWDLQNEFNPNRQRHWQTKEEATYGVWAERDSDDERPSFGGKRARDYSAPVNFISAGLKKGAAEEAELEDSDDEEKPVKQDDFPKDFGPRKLKTGGNFKPSQKGFAGGTKSFMDFGSWERHTKGIGQKLLQKMGYVPGRGLGKNAQGIINPIEAKQRKGKGAVGAYGSERTTQSMQDFPVVDSEEEAEEEFQKELSQWRKDPSGSKKKPKYSYKTVEELKAKGRISKKLTAPQKELSQVKVIDMTGREQKVYYSYSQISHKHNVPDDGLPLQSQQLPQSGKEAKAPGFALPELEHNLQLLIDLTEQEIIQNDRQLQYERDMVVNLFHELEKMTEVLDHEERVISNLSKVLEMVEECERRMQPDCSNPLTLDECARIFETLQDKYYEEYRMSDRVDLAVAIVYPLMKEYFKEWDPLKDCTYGTEIISKWKSLLENDQLLSHGGQDLSADAFHRLIWEVWMPFVRNIVTQWQPRNCDPMVDFLDSWVHIIPVWILDNILDQLIFPKLQKEVENWNPLTDTVPIHSWIHPWLPLMQARLEPLYSPIRSKLSSALQKWHPSDSSAKLILQPWKDVFTPGSWEAFMVKNIVPKLGMCLGELVINPHQQHMDAFYWVIDWEGMISVSSLVGLLEKHFFPKWLQVLCSWLSNSPNYEEITKWYLGWKSMFSDQVLAHPSVKDKFNEALDIMNRAVSSNVGAYMQPGARENIAYLTHTERRKDFQYEAMQERREAENMAQRGIGVAASSVPMNFKDLIETKAEEHNIVFMPVIGKRHEGKQLYTFGRIVIYIDRGVVFVQGEKTWVPTSLQSLIDMAK
partner: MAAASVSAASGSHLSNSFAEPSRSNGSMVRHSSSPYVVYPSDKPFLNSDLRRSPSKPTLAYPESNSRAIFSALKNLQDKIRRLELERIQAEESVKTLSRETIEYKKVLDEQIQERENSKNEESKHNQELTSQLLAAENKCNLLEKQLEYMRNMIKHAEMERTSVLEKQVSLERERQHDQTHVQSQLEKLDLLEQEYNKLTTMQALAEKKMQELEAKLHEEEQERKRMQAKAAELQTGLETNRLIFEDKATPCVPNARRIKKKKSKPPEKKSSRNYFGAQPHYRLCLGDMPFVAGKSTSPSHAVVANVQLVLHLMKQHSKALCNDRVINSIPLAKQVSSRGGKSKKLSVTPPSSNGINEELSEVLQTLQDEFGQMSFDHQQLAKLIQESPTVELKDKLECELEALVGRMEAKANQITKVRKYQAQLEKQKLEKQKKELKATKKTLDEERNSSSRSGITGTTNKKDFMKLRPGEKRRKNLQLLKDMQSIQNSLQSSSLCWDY
B7: Coiled-coil domain-containing protein 172 (Homo sapiens), P0C7W6 (parent)
chain: MSLESLFQHIIFTEHQAEESRRLMREVRSEITRCREKIKKATEELNEEKIKLESKVQQFFEKSFFLQLLKAHENALEKQYSEITNHRNMLLQTFEAIKKQMIEEEDKFIKEITDFNNDYEITKKRELLMKENVKIEISDLENQANMLKSEMKSMEHDSSQLNELQKQKSELIQELFTLQRKLKVFEDEENESICTTKYLEAEKIKISEKPQNDTECLRLKKELELYKEDDMESVYEALQTEIEFLELTLAQKDLQESK

Variants of: B1
Conditions: with creb3_human CREB3, O43889

Variant | effect of a mutation on the interaction
R124Q | with no effect
R176H | with no effect

Variants of: B2
Conditions: with pch2_human TRIP13, Q15645

Variant | effect of a mutation on the interaction
R211Q | with no effect

Variants of: B3
Conditions: with pogz_human POGZ

Variant | effect of a mutation on the interaction
A162V | with no effect

Variants of: B4
Conditions: with cc136_human CCDC136, Q96JN2
Chain of cc136_human CCDC136, Q96JN2 (Q96JN2 whole entry): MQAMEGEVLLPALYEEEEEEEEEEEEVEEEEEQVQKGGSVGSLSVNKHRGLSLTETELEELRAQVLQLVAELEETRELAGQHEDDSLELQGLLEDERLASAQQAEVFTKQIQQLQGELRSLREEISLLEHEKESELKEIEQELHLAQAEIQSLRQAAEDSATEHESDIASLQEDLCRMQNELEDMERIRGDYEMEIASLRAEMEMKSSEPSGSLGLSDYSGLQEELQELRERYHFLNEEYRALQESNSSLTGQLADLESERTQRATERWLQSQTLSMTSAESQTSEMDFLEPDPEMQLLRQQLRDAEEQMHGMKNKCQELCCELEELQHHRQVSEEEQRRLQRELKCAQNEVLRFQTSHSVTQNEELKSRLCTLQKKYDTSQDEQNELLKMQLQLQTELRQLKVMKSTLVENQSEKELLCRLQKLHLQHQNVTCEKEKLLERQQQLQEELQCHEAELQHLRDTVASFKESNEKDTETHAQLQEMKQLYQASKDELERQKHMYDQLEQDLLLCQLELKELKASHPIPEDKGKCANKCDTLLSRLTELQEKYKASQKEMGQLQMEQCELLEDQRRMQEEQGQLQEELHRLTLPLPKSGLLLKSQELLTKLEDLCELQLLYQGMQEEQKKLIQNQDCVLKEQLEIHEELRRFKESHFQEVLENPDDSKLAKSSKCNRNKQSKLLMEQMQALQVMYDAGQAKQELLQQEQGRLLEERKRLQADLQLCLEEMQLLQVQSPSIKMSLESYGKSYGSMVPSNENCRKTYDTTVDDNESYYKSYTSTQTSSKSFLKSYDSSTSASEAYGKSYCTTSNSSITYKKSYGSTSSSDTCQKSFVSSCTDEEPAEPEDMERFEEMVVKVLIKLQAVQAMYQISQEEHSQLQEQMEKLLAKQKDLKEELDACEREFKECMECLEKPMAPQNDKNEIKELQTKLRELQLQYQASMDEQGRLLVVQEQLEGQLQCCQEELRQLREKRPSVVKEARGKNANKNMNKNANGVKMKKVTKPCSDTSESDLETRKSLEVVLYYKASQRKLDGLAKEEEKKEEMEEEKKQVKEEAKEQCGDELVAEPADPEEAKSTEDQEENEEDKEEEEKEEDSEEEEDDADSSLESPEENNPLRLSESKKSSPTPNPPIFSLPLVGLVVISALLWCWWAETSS

Variant | effect of a mutation on the interaction
S63R | with no effect
E141Q | disrupting interaction strength

Variants of: B4
Conditions: with traf2_human TRAF2, Q12933

Variant | effect of a mutation on the interaction
S63R | with no effect
E141Q | disrupting interaction strength

Variants of: B5
Conditions: with goga2_human GOLGA2, Q08379

Variant | effect of a mutation on the interaction
E168D | with no effect

Variants of: B6
Conditions: with cep57_human CEP57, Q86XR8

Variant | effect of a mutation on the interaction
S688L | with no effect
R8Q | with no effect

Variants of: B7
Conditions: with mesh1_human HDDC3, Q8N4P3
Chain of mesh1_human HDDC3, Q8N4P3 (Q8N4P3 whole entry): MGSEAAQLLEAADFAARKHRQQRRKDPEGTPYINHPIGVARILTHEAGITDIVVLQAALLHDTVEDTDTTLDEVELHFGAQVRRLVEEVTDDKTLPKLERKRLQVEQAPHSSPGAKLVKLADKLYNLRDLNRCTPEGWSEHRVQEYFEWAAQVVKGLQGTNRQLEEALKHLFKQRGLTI

Variant | effect of a mutation on the interaction
N145K | with no effect
